# Test results reported in IntAct's records for PubMed 25843002.
# Biological target: tr10b_human TNFRSF10B (UniProt O14763)
substance,measurement,value
Ras-related C3 botulinum toxin substrate 1 (Homo sapiens) (from UniProt P63000) T17N,effect of a mutation on the interaction,decreasing interaction strength
